Assays:
[1] = tested on: RSV Gag∆PR (Rous sarcoma virus, Prague C strain); assay: FA salt titration
[2] = tested on: H132R (HIV-1 / Rous sarcoma virus chimera); assay: FA salt titration
[3] = tested on: HIV-1 Gag∆p6 (HIV-1); assay: FA salt titration
[4] = tested on: R155H (Rous sarcoma virus (Prague C) / HIV-1 chimera); assay: FA salt titration
[5] = tested on: RSV Gag∆PR (Rous sarcoma virus, Prague C strain); assay: fluorescence anisotropy
[6] = tested on: RSV CANC (Rous sarcoma virus, Prague C strain); assay: FA salt titration
[7] = tested on: H132R (HIV-1 / Rous sarcoma virus chimera); assay: fluorescence anisotropy
[8] = tested on: HIV-1 Gag∆p6 (HIV-1); assay: fluorescence anisotropy

## RSV MΨ GG to CC
[1]
  Kd: 0.49 mM

## RSV MΨ UGCG to GAGA
[1]
  Kd: 0.012 mM

## RSV MΨ A197G
[1]
  Kd: 0.047 mM

## HIV-1 TARpolyA
[2]
  Kd: 290 mM
[3]
  Kd: 560 mM
[4]
  Kd: 2600 mM
[1]
  Kd: 40 mM
[5]
  Kd: 18 nM

## RSV MΨ WT
[2]
  Kd: 0.072 mM
[3]
  Kd: 0.055 mM
[4]
  Kd: 0.067 mM
[6]
  Kd: 0.013 mM
[1]
  Kd: 0.071 mM
[7]
  Kd: 13 nM
[8]
  Kd: 14 nM

## HIV-1 Ψ-WT
[2]
  Kd: 19 mM
[3]
  Kd: 0.036 mM
[4]
  Kd: 0.031 mM
[1]
  Kd: 32 mM
[5]
  Kd: 14 nM

— article PMC5035970
